Measured values published in article PMC12473165 (2025).

Target: LysdesArg9BK (Homo sapiens, 3H label on peptide)
Assay: radioligand binding on HEK293 cells

B1: B1R (protein)
chain: MASSWPPLELQSSNQSQLFPQNATACDNAPEAWDLLHRVLPTFIISICFFGLLGNLFVLLVFLLPRRQLNVAEIYLANLAASDLVFVLGLPFWAENIWNQFNWPFGALLCRVINGVIKANLFISIFLVVAISQDRYRVLVHPMASRRQQRRRQARVTCVLIWVVGGLLSIPTFLLRSIQAVPDLNITACILLLPHEAWHFARIVELNILGFLLPLAAIVFFNYHILASLRTREEVSRTRCGGRKDSKTTALILTLVVAFLVCWAPYHFFAFLEFLFQVQAVRGCFWEDFIDLGLQLANFFAFTNSSLNPVIYVFVGRLFRTKVWELYKQCTPKSLAPISSSHRKEIFQLFWRN
Kd: 1.3 nM
